PMC8097376 (EMBO Reports, 2021)

Tests used:
[1] = target: T1, RBD mutant derived from SARS-CoV-2 strain B.1.351 (South Africa) (SARS-CoV-2, B.1.351 (RBD K417N, E484K, …, K417N | E484K | N501Y)); assay: BLI; settings: both partners purified
T1 construct: also called RBD_(B.1.351); source: Expi293 cells, purified

[2] = target: T2, RBD mutant derived from SARS-CoV-2 strain B.1.1.7 (UK) (SARS-CoV-2, B.1.1.7 (RBD N501Y), N501Y); assay: BLI; settings: both partners purified
T2 construct: also called RBD_(B.1.1.7); source: Expi293 cells, purified

B1: nanobody NM1226 (VHH)
VHH: QVQLVESGGGSVQPGGSLRLSCLGSGSLDYYAIGWFRQAPGKEREGVSCIASSGDRTIYADSVKGRFTISRDYGKNTVYLQMNSLKPEDTAMYYCAALQGSYYYTGFVANEYDYWGQGAPVTVSS
[1]
  Kd: ~5.5 nM
[2]
  Kd: ~5.4 nM
